For experiment [1], the target named is T1, CD38 on Raji cells (CD38 positive cells) (UniProt P28907 1-300, limits assumed).
T1 sequence (looked up): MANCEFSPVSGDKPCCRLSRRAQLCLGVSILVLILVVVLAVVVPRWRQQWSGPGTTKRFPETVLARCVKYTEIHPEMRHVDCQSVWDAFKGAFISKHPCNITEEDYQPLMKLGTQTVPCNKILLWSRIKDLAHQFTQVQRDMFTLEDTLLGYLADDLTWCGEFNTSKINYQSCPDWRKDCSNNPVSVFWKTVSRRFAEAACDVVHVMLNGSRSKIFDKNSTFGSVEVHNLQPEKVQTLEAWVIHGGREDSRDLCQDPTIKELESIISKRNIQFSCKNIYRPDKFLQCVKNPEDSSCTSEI
The experiment is described as follows: cell-based or functional assay.

For experiment [2], the target named is T2, CD38-His (UniProt P28907 43-300).
T2 construct: also called target antigen CD38; not shown: His tag
T2 sequence (looked up): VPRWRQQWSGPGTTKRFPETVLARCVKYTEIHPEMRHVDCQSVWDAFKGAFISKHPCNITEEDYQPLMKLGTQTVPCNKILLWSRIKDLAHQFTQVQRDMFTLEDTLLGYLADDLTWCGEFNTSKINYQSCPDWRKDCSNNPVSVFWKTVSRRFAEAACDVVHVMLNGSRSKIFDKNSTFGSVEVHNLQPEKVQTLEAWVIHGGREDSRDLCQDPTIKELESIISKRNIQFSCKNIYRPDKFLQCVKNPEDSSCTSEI
Briefly: ELISA, CD38-His coated at 1 µg/ml, anti-human IgG HRP detection. Here is the method: (1) With SG003 as the control, the binding activity between the fusion protein and CD38 was evaluated by ELISA.
Target antigen CD38-His (1 μg/ml) was coated on ELISA bars, overnight at 4° C.; after washing with PBST, 10% of fetal calf serum was added and blocked at 37° C. for 1 hour; different concentrations of SG003 antibody, SG3847L1 or SG3847L2 fusion protein were added and reacted at 37° C. for 1 hour; after washing with PBST, horseradish peroxidase-labeled goat anti-human IgG secondary antibodies (Goat Anti human IgG HRP, Thermo Fisher Scientific) were added and reacted at 37° C. for 30 minutes, and washed with PBST for 5 times; each well was added with 100 μl TMB (eBioscience), placed in dark at room temperature (20±5° C.) for 1-2 min; then each well was added with 100 μl 2N H₂SO₄ stop solution to terminate the reaction of the substrate, OD values were read at 450 nm on the microplate reader, and the capacity of the fusion protein to bind the target antigen CD38 was analyzed.

The target of another experiment is T3, CD47-His (UniProt Q08722 19-141, limits assumed).
T3 construct: also called target antigen CD47; not shown: His tag
T3 sequence (Q08722 19-141 limits assumed): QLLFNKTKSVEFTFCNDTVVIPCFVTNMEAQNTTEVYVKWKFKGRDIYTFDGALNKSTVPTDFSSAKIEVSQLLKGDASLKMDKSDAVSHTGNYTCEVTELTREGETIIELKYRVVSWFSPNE
The experiment is described as follows: ELISA, CD47-His coated at 1 µg/ml, anti-human IgG HRP detection. Here is the method:
Target antigen CD47-His (1 μg/ml) was coated on ELISA bars, overnight at 4° C.; after washing with PBST, 10% of fetal calf serum was added and blocked at 37° C. for 1 hour; different concentrations of SS002M91, SG3847L1 or SG3847L2 was added and reacted at 37° C. for 1 hour; after washing with PBST, horseradish peroxidase-labeled goat anti-human IgG secondary antibodies (Goat Anti human IgG HRP, Thermo Fisher Scientific) were added and reacted at 37° C. for 30 minutes, and washed with PBST for 5 times; each well was added with […] (eBioscience), placed in dark at room temperature (20±5° C.) for 1-2 min; then each well was added with 100 μl 2N H₂SO₄ stop solution to terminate the reaction of the substrate, OD values were read at 450 nm on the microplate reader, and the capacity of the fusion protein to bind the target antigen CD47 was analyzed.
In general terms: ELISA stands for enzyme-linked immunosorbent assay.

In experiment [3] the target is T4, biotin-labeled CD47 (Biotin-Fc-CD47) (UniProt Q08722 19-141, limits assumed, biotin-labeled).
T4 construct: not shown: Fc part
T4 sequence (Q08722 19-141 limits assumed): as above
Briefly: competition ELISA: SIRPα-His coated at 1 µg/ml, Biotin-Fc-CD47 at 2 µg/ml; competitor SIRPα-His. How it is done:
SIRPα-His was coated on the assay plate at 1 μg/ml overnight at 4° C.; after washing with PBST, 10% of fetal calf serum was added and blocked at 37° C. for 1 hour; SS002M91, SG3847L1 or SG3847L2 was gradiently diluted respectively with 10% of fetal bovine blood, and Biotin-Fc-CD47 was added into the samples until a final concentration of 2 μg/ml, pre-incubated at 37° C. for 30 min, as the primary antibody; after the assay plate was washed with PBST, the primary antibody was added and incubated at 37° C. for 1 hour; after washing with PBST for 5 times, horseradish peroxidase-labeled avidin (Streptavidin-HRP, Jiaxuan Bio.) was added and incubated at 37° C. for 30 minutes; after washing with PBST for 5 times, each well was added with 100 μl TMB (eBioscience), placed in dark at room temperature (20±5° C.) for 1-5 min; then each well was added with 100 μl 2N H₂SO₄ stop solution to terminate the reaction of the substrate, OD values were read at 450 nm on the microplate reader, and the blocking effects of SS002M91, SG3847L1, SG3847L2 on CD47/SIRPα were analyzed.

The target of experiment [4] is T2, CD38-His. The experiment is described as follows: bridging ELISA: CD38-His coated, fusion protein titrated, detected with Biotin-Fc-CD47 and streptavidin-HRP (simultaneous binding of CD38 and CD47). How it is done:
(1) Referring to the principle of FIG. 5, with the anti-CD38 humanized antibody SG003 as the control, the biological activities of the fusion proteins SG3847L1 and SG3847L2 to simultaneously bind two antigens CD38 and CD47 were analyzed by ELISA.
Target antigen CD38-His (1 μg/ml) was coated on ELISA bars, overnight at 4° C.; after washing with PBST, 10% of fetal calf serum was added and blocked at 37° C. for 1 hour; different concentrations of SG003 antibody, SG3847L1 or SG3847L2 fusion protein were added and reacted at 37° C. for 1 hour; after washing with PBST, biotin-labeled CD47 (Biotin-Fc-CD47) was added and reacted at 37° C. for 30 minutes, and washed with PBST for 5 times; horseradish peroxidase-labeled avidin (Streptavidin-HRP, Jiaxuan Bio.) was added and reacted at 37° C. for 30 minutes, and washed with PBST for 5 times; each well was added with 100 μl TMB (eBioscience), placed in dark at room temperature (20±5° C.) for 1-2 min; then each well was added with 100 μl 2N H₂SO₄ stop solution to terminate the reaction of the substrate, OD values were read at 450 nm on the microplate reader, and the capacities of the fusion proteins to simultaneously bind the target antigens CD38 and CD 47 were analyzed.

The term EC50 denotes the concentration needed to bring the measured effect to its halfway point. High values mean weaker potency, low ones greater potency. Broadly, the IC50 is the point on the concentration scale where inhibition reaches its midpoint.

B1: fusion protein SG3847L1 (bispecific antibody, human IgG1, kappa)
heavy: not shown
light: EIVMTQSPASLSASLGQRATISCRASSSVSSSAFSYVHWYQQKSGQPPKLLIYLASNLESGVPARFSGSGSGTDFTLTIHPVESEDVATYYCHHSRELPFTFGSGTKLEIKRTVAAPSVFIFPPSDEQLKSGTASVVCLLNNFYPREAKVQWKVDNALQSGNSQESVTEQDSKDSTYSLSSTLTLSKADYEKHKVYACEVTHQGLSSPVTKSFNRGEC
notes: First polypeptide chain = SG003 light chain
For B1, in experiment [1], the “ADCC EC50 (specific kill rate, LDH release; Raji target cells, NK92MI-CD16a effector cells)” value (shortened to “ADCC EC50”) was 0.014 nM. Also, the EC50 with CD38-His [2] amounted to 0.175 nM; with CD47-His, 0.114 nM; in the experiment with CD38-His [4], 0.02 nM. For the same molecule, the half-inhibitory concentration (IC50) in experiment [3] came to 46.8 nM.

B2: fusion protein SG3847L2 (bispecific antibody, human IgG1, kappa)
heavy: not shown
light: B1 light
notes: as for B1
As to B2, the “ADCC EC50” value in experiment [1] turned out to be 0.013 nM. Also, the EC50 was determined as 0.149 nM with CD38-His [2], 0.091 nM with CD47-His and 0.024 nM with CD38-His [4]. The concentration for half-maximal inhibition (IC50) in experiment [3] was 78.8 nM.

B3: anti-CD38 humanized antibody SG003 (antibody, human IgG1, kappa, V domains shown)
VH: QVQLLESGGGLVQPGGSLKLSCVASGFDFSLYWMNWVRQAPGKGLEWIGKINPDSSTINYTPSLKDKFFISRDNAKNTLYLQMTKVRSEDTALYYCARLWIATGGFDYWGQGTTLTVSS
VL: EIVMTQSPASLSASLGQRATISCRASSSVSSSAFSYVHWYQQKSGQPPKLLIYLASNLESGVPARFSGSGSGTDFTLTIHPVESEDVATYYCHHSRELPFTFGSGTKLEIKR
notes: also called SG003 antibody
On to B3, for which, in experiment [1], the “ADCC EC50” value came to 0.067 nM. This molecule also came in with an EC50 with CD38-His [2] of 0.133 nM.

For the origin of these results see patent US20210317230A1 (HANGZHOU SUMGEN BIOTECH, published 2021).
